{"source": "paper PMC10310818", "target": "2b-3×Flag (pGD-2b-3×Flag) (cucumber mosaic virus (CMV)) (UniProt Q66125)"}
{"substance": "VISP1-GFP (pGDGm-VISP1-GFP) (natural protein)", "values": [{"measurement": "accumulation of 2b-Flag co-expressed with VISP1-Myc, relative to empty vector (immunoblot, N. benthamiana leaves, 60 hpi)", "result": 0.11, "unit": "fold"}]}
